The text below walks through data of publication PMC6829457, “Light-Regulation of Tryptophan Synthase by Combining Protein Design and Enzymology” (International Journal of Molecular Sciences, 2019).

For the assay, the target named is T1, wild-type TrpB, beta subunit of tryptophan synthase from Salmonella typhimurium (Salmonella typhimurium, UniProt P0A2K1 1-397).
T1 construct: TrpB (tryptophan synthase beta chain), Salmonella typhimurium; it carries pyridoxal phosphate as internal aldimine on bK87
T1 sequence: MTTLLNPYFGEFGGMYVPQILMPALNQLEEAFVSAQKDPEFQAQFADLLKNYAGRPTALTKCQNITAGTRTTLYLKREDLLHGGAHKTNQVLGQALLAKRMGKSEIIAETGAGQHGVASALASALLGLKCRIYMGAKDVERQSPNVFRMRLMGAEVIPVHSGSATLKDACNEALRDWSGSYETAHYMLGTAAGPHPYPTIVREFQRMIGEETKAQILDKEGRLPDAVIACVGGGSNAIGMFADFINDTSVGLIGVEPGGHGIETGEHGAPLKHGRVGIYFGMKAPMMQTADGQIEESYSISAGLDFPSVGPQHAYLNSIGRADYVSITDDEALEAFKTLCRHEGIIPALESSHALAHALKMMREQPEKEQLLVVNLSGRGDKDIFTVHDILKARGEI
The assay can be described thus: SEC. The settings on record: both partners purified.

B1: wild-type TrpA, alpha subunit of tryptophan synthase from Salmonella typhimurium (enzyme, UniProt P00929 1-268, looked up)
chain: MERYENLFAQLNDRREGAFVPFVTLGDPGIEQSLKIIDTLIDAGADALELGVPFSDPLADGPTIQNANLRAFAAGVTPAQCFEMLALIREKHPTIPIGLLMYANLVFNNGIDAFYARCEQVGVDSVLVADVPVEESAPFRQAALRHNIAPIFICPPNADDDLLRQVASYGRGYTYLLSRSGVTGAENRGALPLHHLIEKLKEYHAAPALQGFGISSPEQVSAAVRAGAAGAISGSAIVKIIEKNLASPKQMLAELRSFVSAMKAASRA
notes: TrpA (tryptophan synthase alpha chain), Salmonella typhimurium
With B1, the binding result is recorded as “binds”.
